From the supplement of paper PMC9732359
± gives the uncertainty stated by the source.

Experiment: protein stability index of a GFP-peptide fusion (yeast GPS) (PSI 1-4); higher = more stable; sorted into four equal gates, so the index is relative within each strain
Method in brief: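 Mid-log yeast cultures in leucine-free medium, carrying a pooled plasmid library, were sorted into four equal gates by their GFP/Cherry fluorescence ratio. Each plasmid expressed Cherry along with GFP fused upstream of a tiled 17-residue yeast protein peptide. Plasmids recovered from each gate were PCR-amplified and Illumina-sequenced, with reads assigned to strains by barcodes. The protein stability index was obtained by summing each gate's read frequency weighted by its gate number.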

## LSDRANKNQDAFEAELS [ARP9]
doa10∆
  protein stability index: 3.28 ± 0.072
pdr5∆
  protein stability index: 3.13 ± 0.08
san1∆
  protein stability index: 3.04 ± 0.07
ubr1∆
  protein stability index: 3.31 ± 0.057

## VQDCRYSLASVTLKGAK [POP1]
doa10∆
  protein stability index: 2.35 ± 0.041
pdr5∆
  protein stability index: 2.68 ± 0.051
san1∆
  protein stability index: 2.61 ± 0.04
ubr1∆
  protein stability index: 2.56 ± 0.049

## HGTSTSAEDEENIIQRL [CDC53]
doa10∆
  protein stability index: 3.13 ± 0.064
pdr5∆
  protein stability index: 3.34 ± 0.059
san1∆
  protein stability index: 3.13 ± 0.044
ubr1∆
  protein stability index: 3.06 ± 0.057

## ICNTLNIAKDLKWKKGI [SMC1]
doa10∆
  protein stability index: 1.43 ± 0.1
pdr5∆
  protein stability index: 1.26 ± 0.14
san1∆
  protein stability index: 1.45 ± 0.17
ubr1∆
  protein stability index: 2.69 ± 0.24

## RVLQLLAVIMDNIGEID [YCG1]
doa10∆
  protein stability index: 1.93 ± 0.073
pdr5∆
  protein stability index: 1.63 ± 0.067
san1∆
  protein stability index: 1.46 ± 0.17
ubr1∆
  protein stability index: 1.52 ± 0.046

## SEKNKRQSKSSGKSNTS [ITC1]
doa10∆
  protein stability index: 3.06 ± 0.094
pdr5∆
  protein stability index: 3.31 ± 0.071
san1∆
  protein stability index: 2.98 ± 0.073
ubr1∆
  protein stability index: 3.16 ± 0.1

## DSIIDNIVKLCFVHRYK [IRR1]
doa10∆
  protein stability index: 2.57 ± 0.11
pdr5∆
  protein stability index: 1.95 ± 0.042
san1∆
  protein stability index: 1.99 ± 0.11
ubr1∆
  protein stability index: 2.08 ± 0.035

## HAKFSPVSTASYRLLPQ [RPC40]
doa10∆
  protein stability index: 1.71 ± 0.076
pdr5∆
  protein stability index: 1.75 ± 0.055
san1∆
  protein stability index: 1.84 ± 0.089
ubr1∆
  protein stability index: 2.23 ± 0.077

## VISLGPNLATFISSGTS [YJL039C/NUP192]
doa10∆
  protein stability index: 2.33 ± 0.061
pdr5∆
  protein stability index: 2.64 ± 0.065
san1∆
  protein stability index: 2.36 ± 0.073
ubr1∆
  protein stability index: 2.3 ± 0.046

## MLNLIDDVKNILNAKYT [RPN6]
doa10∆
  protein stability index: 2.85 ± 0.18
pdr5∆
  protein stability index: 2.57 ± 0.09
san1∆
  protein stability index: 2.86 ± 0.061
ubr1∆
  protein stability index: 2.86 ± 0.068

## KIGEEDYGEEIKSGVAK [MTW1]
pdr5∆
  protein stability index: 2.93 ± 0.14
ubr1∆
  protein stability index: 3.31 ± 0.12

## SSPEEPFMSYSPQLTAI [SNF12]
doa10∆
  protein stability index: 2.45 ± 0.065
pdr5∆
  protein stability index: 2.79 ± 0.063
san1∆
  protein stability index: 2.7 ± 0.066
ubr1∆
  protein stability index: 2.77 ± 0.051

## EPIRFLPNQFPLKIHRT [SWI1]
doa10∆
  protein stability index: 1.66 ± 0.06
pdr5∆
  protein stability index: 1.81 ± 0.075
san1∆
  protein stability index: 1.59 ± 0.12
ubr1∆
  protein stability index: 1.73 ± 0.07

## KAKKLIQSLPPTLKVNR [RPL38]
doa10∆
  protein stability index: 2.13 ± 0.039
pdr5∆
  protein stability index: 2.18 ± 0.039
san1∆
  protein stability index: 2.02 ± 0.048
ubr1∆
  protein stability index: 2.27 ± 0.036

## ITSIPKPLTENCKKKKK [RMP1]
doa10∆
  protein stability index: 2.84 ± 0.12
pdr5∆
  protein stability index: 2.75 ± 0.12
san1∆
  protein stability index: 2.05 ± 0.085
ubr1∆
  protein stability index: 2.99 ± 0.095

## NIGTPSFNMAQIPQQLY [SNF5]
doa10∆
  protein stability index: 1.93 ± 0.068
pdr5∆
  protein stability index: 2.08 ± 0.072
san1∆
  protein stability index: 2.17 ± 0.056
ubr1∆
  protein stability index: 2.04 ± 0.047

## NKVVVNLNDAGLALQLF [RPN2]
doa10∆
  protein stability index: 2.28 ± 0.084
pdr5∆
  protein stability index: 2.19 ± 0.12
san1∆
  protein stability index: 2.68 ± 0.12
ubr1∆
  protein stability index: 1.85 ± 0.091

## RQTTSNTGLLNKANIQA [RPN11]
doa10∆
  protein stability index: 3 ± 0.092
pdr5∆
  protein stability index: 3.02 ± 0.072
san1∆
  protein stability index: 3.17 ± 0.054
ubr1∆
  protein stability index: 3.19 ± 0.07

## STTTSVNGSTTAGVGST [SIN4]
doa10∆
  protein stability index: 3.06 ± 0.044
pdr5∆
  protein stability index: 2.99 ± 0.048
san1∆
  protein stability index: 3.07 ± 0.041
ubr1∆
  protein stability index: 2.85 ± 0.036

## VKLGLNSKMPTRFPPAV [PRP8]
doa10∆
  protein stability index: 2.78 ± 0.057
pdr5∆
  protein stability index: 3.06 ± 0.076
san1∆
  protein stability index: 2.85 ± 0.051
ubr1∆
  protein stability index: 2.73 ± 0.06

## NSNTTNQNSSTGAGAFG [YJL041W/NSP1]
doa10∆
  protein stability index: 3.04 ± 0.053
pdr5∆
  protein stability index: 3.07 ± 0.074
san1∆
  protein stability index: 3.03 ± 0.051
ubr1∆
  protein stability index: 2.96 ± 0.05

## HEDLVNSIESKNLSLQT [COR1]
doa10∆
  protein stability index: 2.96 ± 0.087
pdr5∆
  protein stability index: 2.96 ± 0.074
san1∆
  protein stability index: 3.09 ± 0.083
ubr1∆
  protein stability index: 2.97 ± 0.073

## TDLRLSTNGLGMCQLYF [SNU114]
doa10∆
  protein stability index: 3.48 ± 0.12
pdr5∆
  protein stability index: 3.52 ± 0.13
san1∆
  protein stability index: 2.98 ± 0.23
ubr1∆
  protein stability index: 3.08 ± 0.21

## PSLELSAEYLQMSLEAN [YJR042W/NUP85]
doa10∆
  protein stability index: 1.78 ± 0.087
pdr5∆
  protein stability index: 2.15 ± 0.095
san1∆
  protein stability index: 2.54 ± 0.18
ubr1∆
  protein stability index: 2.4 ± 0.07

## LQDEVMNIKPVQKQTRA [RPS2]
doa10∆
  protein stability index: 2.91 ± 0.2
pdr5∆
  protein stability index: 3.12 ± 0.18
san1∆
  protein stability index: 2.42 ± 0.14
ubr1∆
  protein stability index: 3.63 ± 0.19

## KAGGECITLDQLAVRAP [RPL18A]
doa10∆
  protein stability index: 2.1 ± 0.097
pdr5∆
  protein stability index: 2.29 ± 0.085
san1∆
  protein stability index: 2.86 ± 0.072
ubr1∆
  protein stability index: 2.57 ± 0.077

## LLTNSNNGSSNNNTQNT [SNF5]
doa10∆
  protein stability index: 2.99 ± 0.082
pdr5∆
  protein stability index: 3.25 ± 0.084
san1∆
  protein stability index: 3.17 ± 0.069
ubr1∆
  protein stability index: 3.18 ± 0.055

## SNEICDLAYQYVRALEL [SRB2]
doa10∆
  protein stability index: 2.92 ± 0.047
pdr5∆
  protein stability index: 2.77 ± 0.037
san1∆
  protein stability index: 2.88 ± 0.046
ubr1∆
  protein stability index: 3.08 ± 0.042

## NLCKIIEPFECVEISHI [RPN6]
doa10∆
  protein stability index: 2.27 ± 0.12
pdr5∆
  protein stability index: 2.09 ± 0.2
san1∆
  protein stability index: 1.97 ± 0.11

## MKIQAGQLGLDDNDVPG [YLR018C/POM34]
doa10∆
  protein stability index: 3.22 ± 0.19
pdr5∆
  protein stability index: 3 ± 0.14
san1∆
  protein stability index: 2.5 ± 0.21
ubr1∆
  protein stability index: 3.11 ± 0.29

## DLINILEKKGFSEVYEY [LIN1]
doa10∆
  protein stability index: 3.44 ± 0.17
pdr5∆
  protein stability index: 3.21 ± 0.29
san1∆
  protein stability index: 3.3 ± 0.099
ubr1∆
  protein stability index: 3.17 ± 0.12

## LSISVAAEPMDSKMIQD [SNU114]
doa10∆
  protein stability index: 2.73 ± 0.061
pdr5∆
  protein stability index: 3.03 ± 0.081
san1∆
  protein stability index: 2.84 ± 0.077
ubr1∆
  protein stability index: 3.18 ± 0.11

## DVQLERVADEDANLNDL [IRR1]
doa10∆
  protein stability index: 2.89 ± 0.17

## ELKPVSLDNKTLDDLVT [YJL041W/NSP1]
doa10∆
  protein stability index: 3.12 ± 0.057
pdr5∆
  protein stability index: 3.04 ± 0.063
san1∆
  protein stability index: 3.09 ± 0.067
ubr1∆
  protein stability index: 3.19 ± 0.042

## DFYVVMNRPGARVTRRK [RPL11A]
doa10∆
  protein stability index: 3.22 ± 0.17
pdr5∆
  protein stability index: 2.86 ± 0.15
san1∆
  protein stability index: 3.28 ± 0.061
ubr1∆
  protein stability index: 3.32 ± 0.11

## ALAFCEIGITQQRIVSA [RRP4]
doa10∆
  protein stability index: 1.71 ± 0.11
pdr5∆
  protein stability index: 2.31 ± 0.11
san1∆
  protein stability index: 1.92 ± 0.23
ubr1∆
  protein stability index: 2.25 ± 0.075

## NLNTDKLKNNASRSQLE [YJL039C/NUP192]
doa10∆
  protein stability index: 2.22 ± 0.13
pdr5∆
  protein stability index: 2.69 ± 0.065
san1∆
  protein stability index: 2.81 ± 0.11
ubr1∆
  protein stability index: 2.69 ± 0.064

## LNISGEFFRNKLKYHDF [RPL16A]
doa10∆
  protein stability index: 1.32 ± 0.13
ubr1∆
  protein stability index: 1.12 ± 0.1

## HGGKMKPEIDENGTLLV [RPR2]
doa10∆
  protein stability index: 3.16 ± 0.078
pdr5∆
  protein stability index: 3.14 ± 0.11
san1∆
  protein stability index: 3.05 ± 0.075
ubr1∆
  protein stability index: 2.97 ± 0.047

## GDVSSGLFEKSTVSANH [BRN1]
doa10∆
  protein stability index: 2.84 ± 0.12
pdr5∆
  protein stability index: 3.31 ± 0.094
san1∆
  protein stability index: 2.74 ± 0.11

## LLKELSKNAQFICTTFR [SMC3]
doa10∆
  protein stability index: 2.45 ± 0.063
pdr5∆
  protein stability index: 2.01 ± 0.052
san1∆
  protein stability index: 1.84 ± 0.1
ubr1∆
  protein stability index: 1.94 ± 0.048

## KYKLISRIVEIFALCIY [YML103C/NUP188]
doa10∆
  protein stability index: 1.58 ± 0.059
pdr5∆
  protein stability index: 2.19 ± 0.055
san1∆
  protein stability index: 1.86 ± 0.076
ubr1∆
  protein stability index: 1.85 ± 0.059

## KSIIGKLTAERANLRKY [POP1]
doa10∆
  protein stability index: 2.72 ± 0.059
pdr5∆
  protein stability index: 2.92 ± 0.081
san1∆
  protein stability index: 2.8 ± 0.07
ubr1∆
  protein stability index: 2.6 ± 0.074

## FVCRGMAATQTIEQSPR [ECM29]
doa10∆
  protein stability index: 1.7 ± 0.063
pdr5∆
  protein stability index: 1.93 ± 0.062
san1∆
  protein stability index: 1.58 ± 0.23
ubr1∆
  protein stability index: 1.56 ± 0.054

## GTQQSNMYTSTQKTELE [SIR4]
doa10∆
  protein stability index: 2.96 ± 0.049
pdr5∆
  protein stability index: 3.12 ± 0.047
san1∆
  protein stability index: 2.95 ± 0.048
ubr1∆
  protein stability index: 3 ± 0.053

## LSSLILKIFQEQSLEVF [SRB8]
doa10∆
  protein stability index: 2.5 ± 0.087
pdr5∆
  protein stability index: 2.67 ± 0.12
san1∆
  protein stability index: 2.88 ± 0.09
ubr1∆
  protein stability index: 2.71 ± 0.1

## LSGNSVEDVSQNAADLQ [RPL9A]
doa10∆
  protein stability index: 3.31 ± 0.15
pdr5∆
  protein stability index: 3.55 ± 0.15
san1∆
  protein stability index: 2.78 ± 0.13
ubr1∆
  protein stability index: 3.31 ± 0.058

## LSLTLNTHYHADYRLIL [SNF2]
doa10∆
  protein stability index: 2.83 ± 0.077
pdr5∆
  protein stability index: 2.98 ± 0.08
san1∆
  protein stability index: 2.75 ± 0.1
ubr1∆
  protein stability index: 2.65 ± 0.073

## FNNGDDDDYGDEEDPNE [RPC31]
doa10∆
  protein stability index: 3.25 ± 0.15
pdr5∆
  protein stability index: 2.36 ± 0.17
san1∆
  protein stability index: 2.98 ± 0.088

## KPSNGKGSRKSSKAATP [SNF12]
doa10∆
  protein stability index: 3 ± 0.085
pdr5∆
  protein stability index: 3.02 ± 0.076
san1∆
  protein stability index: 3.24 ± 0.079
ubr1∆
  protein stability index: 3.239 ± 0.027

## DNVDFILSNVDLAMANS [RPB3]
doa10∆
  protein stability index: 3.07 ± 0.057
pdr5∆
  protein stability index: 3.08 ± 0.054
san1∆
  protein stability index: 3.12 ± 0.064
ubr1∆
  protein stability index: 2.97 ± 0.05
